{
  "source": "patent US20150064217A1",
  "about": "“PLURIPOTENT GERM LAYER ORIGIN ANTIGEN PRESENTING CANCER VACCINE” (CALIFORNIA STEM CELL, INC., priority 2012, published 2015)",
  "key": {"SK-5-Mel cells": {"system": "SK-5-Mel cells", "test": "MHC class II (HLA-DR) expression by flow cytometry with autophagy inhibitor", "format": "cell-based", "conditions": "autophagy inhibitor together with interferon-gamma", "protocol": "The cells were then harvested and assayed for apoptosis and MHC class II (HLA-DR) expression by flow cytometry.\n(§1) The methodology of the study was as follows. Autologous and model melanoma tumor cell lines were incubated with 1000 IU/mL of IFN-gamma for 72 hours prior to assaying for autophagy, apoptosis and MHC class II expression. Autophagy was detected by immunobloting with antibodies against LC3 II and by flow cytometry with Enzo's CytoID® Autophagy Detection Kit. Apoptosis and MHC class II induction were assayed by flow cytometry using 7-AAD and annexin-V staining and antibodies against MHC class II, respectively. 7-AAD intercalates in dsDNA. 7-AAD is excluded by viable cells, and thus it can be used to detect dead cells.\nAnalysis of tumor cell death and changes in major histocompatibility class II expression in response to IFN-gamma were conducted by use of antibodies directed against MHC class II, annexin-V and 7-amino-actinomycin D (7-AAD) and acquired on a Beckton-Dickenson FACS Calibur® flow cytometer.\n(§2) What was investigated was the induction of autophagy, apoptosis and MHC class II molecules after IFN-gamma treatment of melanoma tumor cells in vitro. […] Autophagy was detected by immunobloting with antibodies against LC3 II and by flow cytometry with Enzo's CytoID Autophagy Detection Kit. […]"}, "melanoma cell lines [1]": {"system": "melanoma cell lines", "test": "Apoptosis and autophagy induction in melanoma cell lines (7-AAD, annexin-V, LC3 II)", "format": "cell-based", "protocol": "as §1\nAnalysis of tumor cell death and changes in major histocompatibility class II expression in response to IFN-gamma were conducted by use of antibodies directed against MHC class II, annexin-V and 7-amino-actinomycin D (7-AAD) and acquired on a Beckton-Dickenson FACS Calibur® flow cytometer. […]\nas §2"}, "[2]": {"system": "autologous melanoma cells", "test": "Flow cytometry for MHC class I and class II on autologous melanoma cells", "format": "cell-based, human", "conditions": "in response to IFN-gamma treatment", "protocol": "FIGS. 2A-D show characterization of IFN-gamma treated autologous tumor cells used for loading dendritic cells. Autologous melanoma tumor cells were treated with or without 1000 IU/mL IFN-gamma for 72 hours in 15% FBS/ECS in RPMI, harvested and irradiated with 100 Gy and cryopreserved. Cells were then thawed in AIMV and a sample taken for flow cytometry and for preparation of cell lysates for immunoblotting prior to antigen loading of DCs. An example of four separate autologous melanoma cell lines is shown (FIG. 2A, FIG. 2B and FIG. 2C). Induction major histocompatibility complexes by IFN-gamma treatment of autologous tumor cells (FIG. 2D). Tumor cells were harvested after being treated with or without 1000 IU/mL IFN-gamma for 72 hours and then assayed for MHC class I and class II. Control isotype antibodies were used to identify positive populations. Dark data points indicate median mean fluorescent plus/minus 95% confidence interval. N=65. After irradiation, melanoma cells are checked by assays to ensure that there is not any mitosis. […]"}, "[3]": {"system": "autologous melanoma tumor cells", "test": "Immunoblotting of melanoma cell lysates", "format": "cell-based, human", "conditions": "cells incubated with IFN-gamma", "protocol": "Cytoplasmic cell lysates were prepared with Mammalian Protein Extraction Reagent (Thermo Scientific, Rockford, Ill.) plus protease inhibitor cocktail (Roche, Indianapolis, Ind.) at 10,000 cells/uL on ice. Approximately 25 uLs/lane of cell lysates were separated on 12.5% tris-glycine gels, transferred to PVDF membrane and probed with antibodies against the following: calreticulin (MBL, Woburn, Mass.), Hsp-60, Hsp-70, Hsp-90 (R&D Systems, Minneapolis, Minn.), HMBG-1 (Cell Signaling, Danvers, Mass.), ICAM-1 (Santa Cruz Biotech, Santa Cruz, Calif.), Mel-4, Mart-1 (Signet, Emeryville, Calif.), tyrosinase (Upstate, Lake Placid, N.Y.) and GADPH (Calbiochem, Darmstadt, Germany)."}, "melanoma cell lines [4]": {"system": "melanoma cell lines", "test": "Immunohistochemistry of tumor associated antigens in melanoma cell lines with or without IFN-gamma", "format": "cell-based, human", "conditions": "share of melanoma cell lines; 1000 IU/mL IFN-gamma, 72 hours; N = 27 samples", "protocol": "Expression of a panel antigens by melanoma lines were determined using immunocytochemical procedure. Cells were cultured in 8-chamber culture slides (Thermo Fisher, Rochester, N.Y.) in the presence or absence of 1000 IU/mL IFN-gamma. After 72 hours, the cells were washed 3 times with 1× Phosphate Buffered Saline (PBS) and fixed in cold acetone. After blocking endogenous peroxidase, cells were incubated with appropriate primary antibodies against the antigens listed. Immunohistochemistry was performed using biotinylated anitmouse or rabbit immunoglobulins, Super Sensitive enzyme-conjugated streptavidin labeling and horse radish peroxidase chromogen, and substrate kits (Biogenex, San Ramon, Calif.). The reactivity of the following anti-human polyclonal or monoclonal antibodies was investigated with isotype matched control antibody: S-100 and HMB-45 (Biogenex, San Ramon, Calif.), Mel-2, Mel-5, Mart-1 (Signet, Dedham, Mass.), Tyrosinase and Mage-1 (Thermo Scientific, Fremont, Calif.), Melan-A, HLA-class I and HLA-class II (Dako, Denmark)."}, "Ovarian tumor cell line": {"system": "Ovarian tumor cell line", "test": "Response to interferon-gamma by flow cytometry, ovarian tumor cell line", "format": "cell-based", "conditions": "Sample B, interferon-gamma 72 hours", "description": "(§3) Pure tumor cells were generated from colon, ovarian, glioblastoma, and renal cell carcinoma according to Dillman and Comforth, et al. (Cornforth, et al. (2011) Cancer Immunol. Immunother. 60:123-131; Dillman, et al. (1993) J. Immunother. Emphasis Tumor Immunol. 14:65-69; Dillman, et al. (2000) Cancer Biother. Radiopharm. 15:161-168; Dillman, et al. (1999) 14:443-449; Dillman et al. (2000) 15:161-168).\n(§4) Briefly, tumor biopsies from surgical samples were enzymatically processed into single cell suspensions and purified cell lines generated by differential attachment and serum starvation. The cell lines generated were cryopreserved in liquid nitrogen, thawed and treated with or without interferon-gamma in 5% fetal bovine serum/RPMI media for 72 hours. After exposure to interferon-gamma, the non-adherent cells were analyzed separately from the adherent cells by flow-cytometry. The markers investigated were MHC class I, MHC class II, Annexin V (apoptosis), and 7-ADD (viability)."}, "[5]": {"system": "Renal Cell Carcinoma tumor cell line", "test": "Response to interferon-gamma by flow cytometry, renal cell carcinoma cell line", "format": "cell-based", "conditions": "Sample D, interferon-gamma 72 hours", "description": "as §3, §4"}, "Colon tumor cell line": {"system": "Colon tumor cell line", "test": "Response to interferon-gamma by flow cytometry, colon tumor cell line", "format": "cell-based", "conditions": "Sample A, interferon-gamma 72 hours", "description": "as §3, §4"}, "[6]": {"system": "Glioblastoma tumor cell line", "test": "Response to interferon-gamma by flow cytometry, glioblastoma cell line", "format": "cell-based", "conditions": "Sample C, interferon-gamma 72 hours", "description": "as §3, §4"}},
  "data": [
    {"molecule": "Cn1cnc(N)c2ncnc1-2", "note": "[3-MA, 3-methyladenine]", "values": [
      {"measurement": "MHC class II expression despite treatment with interferon-gamma", "setting": "SK-5-Mel cells", "result": "loss of MHC class II expression"}
    ]},
    {"molecule": "carbobenzoxy-valyl-alanyl-aspartyl-[O-methyl]-fluoromethylketone [Z-VAD, reference compound]", "values": [
      {"measurement": "apoptosis in IFN-gamma treated cells", "setting": "melanoma cell lines [1]; pan caspase inhibitor with IFN-gamma", "result": "prevents apoptosis"}
    ]},
    {"molecule": "interferon-gamma (protein, UniProt P01579 24-161, looked up, type II interferon (InterMune, Brisbane, Calif.) used to treat tumor cells in vitro) Interferon gamma: QDPYVKEAENLKKYFNAGHSDVADNGTLFLGILKNWKEESDRKIMQSQIVSFYFKLFKNFKDDQSIQKSVETIKEDMNVKFFNSNKKKRDDFEKLTNYSVTDLNVQRKAIHELIQVMAELSPAAKTGKRKRSQMLFRG", "values": [
      {"measurement": "cases with MHC class II induction greater than two fold", "setting": "[2]", "result": 70, "unit": "%"},
      {"measurement": "ICAM-1, immunoblot", "setting": "[3]", "result": "significantly up-regulated"},
      {"measurement": "calreticulin and high-mobility group box-1 protein (HMGB-1), immunoblot", "setting": "[3]", "result": "up-regulated in some cases"},
      {"measurement": "common melanoma antigens (mel-4, Mart-1 and tyrosinase), immunoblot", "setting": "[3]", "result": "down regulated"},
      {"measurement": "HMB-45 expression: Change after IFN-gamma treatment, Down", "setting": "melanoma cell lines [4]", "result": "45/5"},
      {"measurement": "HMB-45 expression: Change after IFN-gamma treatment, None", "setting": "melanoma cell lines [4]", "result": 54.5, "unit": "%"},
      {"measurement": "MAGE-1 expression: Change after IFN-gamma treatment, Down", "setting": "melanoma cell lines [4]", "result": 61.5, "unit": "%"},
      {"measurement": "MAGE-1 expression: Change after IFN-gamma treatment, None", "setting": "melanoma cell lines [4]", "result": 38.5, "unit": "%"},
      {"measurement": "MART-1 expression: Change after IFN-gamma treatment, Down", "setting": "melanoma cell lines [4]", "result": 85.2, "unit": "%"},
      {"measurement": "MART-1 expression: Change after IFN-gamma treatment, None", "setting": "melanoma cell lines [4]", "result": 14.8, "unit": "%"},
      {"measurement": "Mel-2 expression: Change after IFN-gamma treatment, Down", "setting": "melanoma cell lines [4]", "result": 53.8, "unit": "%"},
      {"measurement": "Mel-2 expression: Change after IFN-gamma treatment, None", "setting": "melanoma cell lines [4]", "result": 46.2, "unit": "%"},
      {"measurement": "Mel-5 expression: Change after IFN-gamma treatment, Down", "setting": "melanoma cell lines [4]", "result": 27.3, "unit": "%"},
      {"measurement": "Mel-5 expression: Change after IFN-gamma treatment, None", "setting": "melanoma cell lines [4]", "result": 72.7, "unit": "%"},
      {"measurement": "Melan-A expression: Change after IFN-gamma treatment, Down", "setting": "melanoma cell lines [4]", "result": 70.8, "unit": "%"},
      {"measurement": "Melan-A expression: Change after IFN-gamma treatment, None", "setting": "melanoma cell lines [4]", "result": 29.2, "unit": "%"},
      {"measurement": "S-100 expression: Change after IFN-gamma treatment, Down", "setting": "melanoma cell lines [4]", "result": 57.1, "unit": "%"},
      {"measurement": "S-100 expression: Change after IFN-gamma treatment, None", "setting": "melanoma cell lines [4]", "result": 42.9, "unit": "%"},
      {"measurement": "Tyrosinase expression: Change after IFN-gamma treatment, Down", "setting": "melanoma cell lines [4]", "result": 60.0, "unit": "%"},
      {"measurement": "Tyrosinase expression: Change after IFN-gamma treatment, None", "setting": "melanoma cell lines [4]", "result": 40.0, "unit": "%"},
      {"measurement": "Induction of MHC class I", "setting": "Ovarian tumor cell line", "result": "Yes"},
      {"measurement": "Induction of MHC class II", "setting": "Ovarian tumor cell line", "result": "Yes"},
      {"measurement": "Induction of apoptosis", "setting": "Ovarian tumor cell line", "result": "No"},
      {"measurement": "Induction of autophagy", "setting": "Ovarian tumor cell line", "result": "Yes"},
      {"measurement": "Induction of MHC class I", "setting": "[5]", "result": "No"},
      {"measurement": "Induction of MHC class II", "setting": "[5]", "result": "Yes"},
      {"measurement": "Induction of apoptosis", "setting": "[5]", "result": "Yes"},
      {"measurement": "Induction of autophagy", "setting": "[5]", "result": "Yes"},
      {"measurement": "Induction of MHC class I", "setting": "Colon tumor cell line", "result": "Yes"},
      {"measurement": "Induction of MHC class II", "setting": "Colon tumor cell line", "result": "Yes"},
      {"measurement": "Induction of apoptosis", "setting": "Colon tumor cell line", "result": "No"},
      {"measurement": "Induction of autophagy", "setting": "Colon tumor cell line", "result": "Yes"},
      {"measurement": "induction of autophagic and apoptotic cell populations", "setting": "melanoma cell lines [1]; 1000 IU/mL IFN-gamma, 72 hours", "result": "induces both autophagic and apoptotic cell populations"},
      {"measurement": "Induction of MHC class I", "setting": "[6]", "result": "No"},
      {"measurement": "Induction of MHC class II", "setting": "[6]", "result": "Yes"},
      {"measurement": "Induction of apoptosis", "setting": "[6]", "result": "Yes"},
      {"measurement": "Induction of autophagy", "setting": "[6]", "result": "Yes"}
    ]}
  ]
}
